According to patent US20090155205A1:

Tests used:
[1] = molecular target: recombinant human TNFα (rhTNFα) (human) (UniProt P01375); experiment: cell-based or functional assay
[2] = molecular target: recombinant human TNFα (rhTNFα) (human) (UniProt P01375); experiment: SPR BIAcore, summary table
[3] = molecular target: recombinant human TNFα (rhTNFα) (human) (UniProt P01375); experiment: SPR BIAcore, biotin-rhTNFα immobilized, Ab 3 nM
[4] = molecular target: recombinant human TNFα (rhTNFα) (human) (UniProt P01375); experiment: SPR BIAcore, biotin-rhTNFα immobilized, Ab 6 nM
[5] = molecular target: recombinant human TNFα (rhTNFα) (human) (UniProt P01375); experiment: SPR BIAcore, biotin-rhTNFα immobilized, Ab 13 nM
[6] = molecular target: recombinant human TNFα (rhTNFα) (human) (UniProt P01375); experiment: SPR BIAcore, biotin-rhTNFα immobilized, Ab 25 nM
[7] = molecular target: recombinant human TNFα (rhTNFα) (human) (UniProt P01375); experiment: SPR BIAcore, biotin-rhTNFα immobilized, Ab 50 nM
[8] = molecular target: recombinant human TNFα (rhTNFα) (human) (UniProt P01375); experiment: SPR BIAcore, biotin-rhTNFα immobilized, Ab 100 nM
[9] = molecular target: recombinant human TNFα (rhTNFα) (human) (UniProt P01375); experiment: SPR BIAcore, biotin-rhTNFα immobilized, Ab 200 nM
[10] = molecular target: recombinant human TNFα (rhTNFα) (human) (UniProt P01375); experiment: SPR BIAcore, biotin-rhTNFα immobilized, Ab 400 nM
[11] = molecular target: recombinant human TNFα (rhTNFα) (human) (UniProt P01375); experiment: SPR BIAcore, biotin-rhTNFα immobilized, average of the series

recombinant human TNFα (rhTNFα) (human), sequence (P01375 77-233 limits assumed): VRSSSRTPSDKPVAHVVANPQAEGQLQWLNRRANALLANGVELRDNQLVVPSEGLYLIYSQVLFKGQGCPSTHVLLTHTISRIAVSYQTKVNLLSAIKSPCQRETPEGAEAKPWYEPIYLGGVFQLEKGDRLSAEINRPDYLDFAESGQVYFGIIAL

Substance: MAK 195 F(ab′)2
- IC50, neutralization of TNFα-induced L929 cytotoxicity [1]: 0.062 nM
- Kd [2]: 0.46 nM
- Stoichiometry [2]: 1.4
- koff [2]: 8.7e-05 s⁻¹
- kon [2]: 190000 M⁻¹ s⁻¹
- Ab, bound, RUs [3]: 231 RUs
- koff [3]: 6.95e-05 s⁻¹
- rhTNFα/Ab [3]: 0.26
- Ab, bound, RUs [4]: 433 RUs
- koff [4]: 7.37e-05 s⁻¹
- rhTNFα/Ab [4]: 0.47
- Ab, bound, RUs [5]: 708 RUs
- koff [5]: 3.66e-05 s⁻¹
- rhTNFα/Ab [5]: 0.78
- Ab, bound, RUs [6]: 957 RUs
- koff [6]: 4.41e-05 s⁻¹
- rhTNFα/Ab [6]: 1.09
- Ab, bound, RUs [7]: 1110 RUs
- koff [7]: 3.67e-05 s⁻¹
- rhTNFα/Ab [7]: 1.32
- Ab, bound, RUs [8]: 1140 RUs
- koff [8]: 3.54e-05 s⁻¹
- rhTNFα/Ab [8]: 1.39
- Ab, bound, RUs [9]: 1080 RUs
- koff [9]: 4.54e-05 s⁻¹
- rhTNFα/Ab [9]: 1.38
- Ab, bound, RUs [10]: 881 RUs
- koff [10]: 5.38e-05 s⁻¹
- rhTNFα/Ab [10]: 1.2
- koff [11]: 4.94e-05 s⁻¹
